Results on six molecules are retold here after paper PMC7794386, “Mechanism of filament formation in UPA-promoted CARD8 and NLRP1 inflammasomes” (Nature Communications, 2021).

B1: caspase-1^CARD (1-95, G20K), as it stands in the fusion m16 (domain or fragment, UniProt P29466 1-95, looked up)
chain: MADKVLKEKRKLFIRSMGEKTINGLLDELLQTRVLNKEEMEKVKRENATVMDKTRALIDSVIPKGAQACQICITYICEEDSYLAGTLGLSADQTS
notes: caspase-1, CARD, residues 1-95, type IIb mutant G20K; Joined on one chain with m17 through a 5x GSS linker; source: E. coli BL21 (DE3), purified as part of the fusion protein m16

The target of series [1] is CARD8^CARD (P446-L537, A452C), MBP tag cleaved (human) (UniProt Q9Y2G2). As to the kind of experiment: negative stain EM of filament formation; purified MBP-fused protein cleaved with 3C protease for 3 h at 37 °C at different concentrations (0.1 to 30 µM), then negatively stained with 1% uranyl formate and imaged.
Series [2] deals with the molecule itself. Kind of series: cryo-EM structure; ASC^CARD-caspase-1^CARD octamer; 25 mM Tris-HCl pH 8.0, 150 mM NaCl, 2 mM DTT; 3.9 Å map.
Series [3] concerns the target B1. The series is described as above. The note with it: both partners purified.
Series [4] concerns the molecule itself. Kind of series: SEC; preparative SEC of amylose-purified His-MBP fusions (Superdex 200 for MBP-CARD, Superose 6 for MBP-UPA and MBP-NLRP1-CT); 25 mM Tris-HCl pH 7.5, 150 mM NaCl, 1 mM TCEP.
Series [5] deals with the molecule itself. As to the kind of experiment: SEC-MALS; Superdex 200 in 25 mM Tris-HCl pH 8.0, 150 mM NaCl, 2 mM DTT, three-angle light scattering and refractive index detectors, 0.5 mL/min.

What is called stoichiometry N is a count of units in the complex or per binding partner.

The molecule “CARD8^CARD (P446-L537, A452C), MBP tag cleaved (from UniProt Q9Y2G2-5 446-537) (domain or fragment)” gave a minimum concentration required to form filaments in series [1] of 15 µM.
In the case of B1, the binding result in series [2] is “binds”.

B2: ASC^CARD (106-195, W169G), as it stands in the fusion m16 (domain or fragment, UniProt Q9ULZ3 106-195, looked up)
chain: SAAKPGLHFIDQHRAALIARVTNVEWLLDALYGKVLTDEQYQAVRAEPTNPSKMRKLFSFTPAGNWTCKDLLLQALRESQSYLVEDLERS
notes: ASC (apoptosis-associated speck-like protein containing a CARD), CARD, residues 106-195, type IIa mutant W169G; Joined on one chain with m18 through a 5x GSS linker; source: E. coli BL21 (DE3), purified as part of the fusion protein m16
Take B2: the binding result in series [2] and in series [3] was “binds” each time.

B3: NLRP1 His-MBP-3C-UPA (S1213-P1364), uncleaved (domain or fragment, human, UniProt Q9C000-1 1213-1364, looked up)
chain: SPLGVLLKMIHNALRFIPVTSVVLLYHRVHPEEVTFHLYLIPSDCSIRKAIDDLEMKFQFVRIHKPPPLTPLYMGCRYTVSGSGSGMLEILPKELELCYRSPGEDQLFSEFYVGHLGSGIRLQVKDKKDETLVWEALVKPGDLMPATTLIPP
notes: NLRP1, human, UPA S1213-P1364, isoform 1 (UniProt Q9C000-1); also called oligomeric MBP-UPA protein; source: E. coli BL21 (DE3), purified (amylose resin, Superose 6); not shown: His, N-terminal, kept; MBP, N-terminal, kept
B3: in series [4], the binding result is “binds”.

B4: CARD8 His-MBP-3C-UPA (S297-P446), uncleaved (domain or fragment, human, UniProt Q9Y2G2-5 297-446, looked up)
chain: SLMGILLRIASGTRLSIPITSNTLIYYHPHPEDIKFHLYLVPSDALLTKAIDDEEDRFHGVRLQTSPPMEPLNFGSSYIVSNSANLKVMPKELKLSYRSPGEIQHFSKFYAGQMKEPIQLEITEKRHGTLVWDTEVKPVDLQLVAASAPP
notes: CARD8, human, UPA S297-P446; numbers count on: T60 isoform, UniProt Q9Y2G2-5; Made by a stop codon in the CARD8 His-MBP-3C-UPA-CARD plasmid; also called oligomeric MBP-UPA protein; source: E. coli BL21 (DE3), purified (amylose resin, Superose 6); not shown: His, N-terminal, kept; MBP, N-terminal, kept
B4: in series [4], the binding result is “binds”.

B5: ASC^CARD (106-195, W169G)-5xGSS-caspase-1^CARD (1-95, G20K) fusion protein (other)
chain: SAAKPGLHFIDQHRAALIARVTNVEWLLDALYGKVLTDEQYQAVRAEPTNPSKMRKLFSFTPAGNWTCKDLLLQALRESQSYLVEDLERSGSSGSSGSSGSSGSSMADKVLKEKRKLFIRSMGEKTINGLLDELLQTRVLNKEEMEKVKRENATVMDKTRALIDSVIPKGAQACQICITYICEEDSYLAGTLGLSADQTS
notes: ASC (apoptosis-associated speck-like protein containing a CARD), CARD, residues 106-195, type IIa mutant W169G; 5x GSS linker, written out from the printed '5XGSS'; caspase-1, CARD, residues 1-95, type IIb mutant G20K; Four fusion chains form an octamer of CARDs; also called ASC^CARD-caspase-1^CARD octamer; ASC^CARD-caspase-1^CARD fusion protein; source: E. coli BL21 (DE3), purified (Ni-NTA, TEV …)
As for B5, the “stoichiometry N” value in series [5] was found to be 4.
